Experimental findings from article PMC9172071, “Peach fruit PpNAC1 activates PpFAD3-1 transcription to provide ω-3 fatty acids for the synthesis of short-chain flavor volatiles” are described below.

The target of the data set is GST-PpNAC1 (Prunus persica (peach), UniProt M5WG30 1-363). The experiment in a line: EMSA; LightShift Chemiluminescent EMSA kit (Thermo Fisher); buffer, salt, pH and temperature not stated (refers to previous study). Conditions: protein: recombinant; tags: GST (N-terminal, pGEX-4T-1); chain copies: 2; blunt.
Chain of GST-PpNAC1 (M5WG30 entry or part of it): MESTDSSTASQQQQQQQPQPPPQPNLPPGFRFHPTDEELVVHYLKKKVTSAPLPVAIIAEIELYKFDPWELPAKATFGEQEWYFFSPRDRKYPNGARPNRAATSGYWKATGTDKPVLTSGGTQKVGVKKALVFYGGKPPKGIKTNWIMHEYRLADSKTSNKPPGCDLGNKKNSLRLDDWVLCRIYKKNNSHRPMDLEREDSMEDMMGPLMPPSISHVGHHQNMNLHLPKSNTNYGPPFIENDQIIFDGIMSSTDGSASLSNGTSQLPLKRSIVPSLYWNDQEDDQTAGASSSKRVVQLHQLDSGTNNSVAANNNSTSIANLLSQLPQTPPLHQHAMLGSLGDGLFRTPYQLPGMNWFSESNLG

B1: Mutant-Probe1 (dsDNA)
DNA 1: AACCCCGCAGCAGCGTGCACTTTACCTGGTG
DNA 2: CACCAGGTAAAGTGCACGCTGCTGCGGGGTT
With B1, the binding result is reported as “no binding”.
